Reference: patent publication US10227388B2, “Peptides and combination of peptides for use in immunotherapy against non-small cell lung cancer and other cancers” (immatics biotechnologies GmbH, priority 2015, dated 2019)

Molecular target: HLA-A*02:01 (Homo sapiens, UniProt P04439, D140Y/D185E/D98H/E176V/E277Q/G131W/G231S/I119V/I121R/I166T/I218V/L300P/L318F/N151K/N90K/P208A/P217A/Q86G/Q94H/R138H/R169H/T345S)
Experiment: MHC binding assay (UV-ligand exchange, ELISA, peptide exchange yield)
Details: binding of HLA-class I restricted peptides to HLA-A*02:01
Outline: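 Peptide–HLA-A*02:01 complexes made by UV-ligand exchange of a UV-cleavable peptide for the test peptide. Exchange yield measured by ELISA: 100-fold diluted monomers captured on streptavidin, 1 h at 37° C., detected with HRP anti-β2m and TMB, absorbance at 450 nm.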

Substance	Peptide exchange (MHC class I binding score, peptide exchange yield)
55 (SLLDLETLSL; listed as Homo sapiens) [compound 55]	″++++″ (≥75% = ++++)
321 (GLFEDVTQPGILL; listed as Homo sapiens) [compound 321]	″++++″ (≥75% = ++++)
80 (FLYDNLVESL; listed as Homo sapiens) [compound 80]	″++″ (≥20% = ++)
308 (SQYSGQLHEV; listed as Homo sapiens) [compound 308]	″+++″ (≥50% = +++)
209 (KLIESKHEV; listed as Homo sapiens) [compound 209]	″++″ (≥20% = ++)
258 (ELAERVPAI; listed as Homo sapiens) [compound 258]	″++″ (≥20% = ++)
530 (VMYADIGGMDI; listed as Homo sapiens) [compound 530]	″+++″ (≥50% = +++)
87 (ALPEAPAPLLPHIT; listed as Homo sapiens) [compound 87]	″++″ (≥20% = ++)
524 (ALIENLTHQI; listed as Homo sapiens) [compound 524]	″++″ (≥20% = ++)
102 (YLFESEGLVL; listed as Homo sapiens) [compound 102]	″+++″ (≥50% = +++)
591 (SMAELDIKL; listed as Homo sapiens) [compound 591]	″+++″ (≥50% = +++)
179 (KVLNELYTV; listed as Homo sapiens) [compound 179]	″+++″ (≥50% = +++)
496 (FLVEKQPPQV; listed as Homo sapiens) [compound 496]	″+++″ (≥50% = +++)
347 (SLFKHDPAAWEA; listed as Homo sapiens) [compound 347]	″++++″ (≥75% = ++++)
71 (GILARIASV; listed as Homo sapiens) [compound 71]	″+++″ (≥50% = +++)
446 (QLIPALAKV; listed as Homo sapiens) [compound 446]	″+++″ (≥50% = +++)
370 (SLLQDLVSV; listed as Homo sapiens) [compound 370]	″+++″ (≥50% = +++)
398 (KLLEEDGTIITL; listed as Homo sapiens) [compound 398]	″++″ (≥20% = ++)
84 (VTFGEKLLGV; listed as Homo sapiens) [compound 84]	″++″ (≥20% = ++)
369 (GLFPEHLIDV; listed as Homo sapiens) [compound 369]	″+++″ (≥50% = +++)
556 (FLTDLEDLTL; listed as Homo sapiens) [compound 556]	″+++″ (≥50% = +++)
220 (LLQKFVPEI; listed as Homo sapiens) [compound 220]	″++″ (≥20% = ++)

Substance	Peptide exchange (MHC class I binding score, peptide exchange yield)
88 (FLLVGDLMAV; listed as Homo sapiens) [compound 88]	″+++″ (≥50% = +++)
600 (ALAAPDIVPAL; listed as Homo sapiens) [compound 600]	″+++″ (≥50% = +++)
257 (SIFSAFLSV; listed as Homo sapiens) [compound 257]	″+++″ (≥50% = +++)
78 (SLFSSLEPQIQPV; listed as Homo sapiens) [compound 78]	″+++″ (≥50% = +++)
27 (ILADIVISA; listed as Homo sapiens) [compound 27]	″+++″ (≥50% = +++)
189 (ALQRKLPYV; listed as Homo sapiens) [compound 189]	″+++″ (≥50% = +++)
464 (ALNDCIYSV; listed as Homo sapiens) [compound 464]	″+++″ (≥50% = +++)
207 (GLTSTNAEV; listed as Homo sapiens) [compound 207]	″++″ (≥20% = ++)
560 (ALWDIETGQQTTT; listed as Homo sapiens) [compound 560]	″+++″ (≥50% = +++)
86 (NLIGKIENV; listed as Homo sapiens) [compound 86]	″+++″ (≥50% = +++)
193 (QLLDADGFLNV; listed as Homo sapiens) [compound 193]	″+++″ (≥50% = +++)
305 (SIANFSEFYV; listed as Homo sapiens) [compound 305]	″++++″ (≥75% = ++++)
251 (ALYTGFSILV; listed as Homo sapiens) [compound 251]	″++″ (≥20% = ++)
176 (YLMEGSYNKVFL; listed as Homo sapiens) [compound 176]	″++″ (≥20% = ++)
241 (SLVEVNPAYSV; listed as Homo sapiens) [compound 241]	″+++″ (≥50% = +++)
616 (VLIDEVESL; listed as Homo sapiens) [compound 616]	″+++″ (≥50% = +++)
587 (VMNDRLYAI; listed as Homo sapiens) [compound 587]	″+++″ (≥50% = +++)
23 (VLLDDIFAQL; listed as Homo sapiens) [compound 23]	″+++″ (≥50% = +++)
93 (LLQAIKLYL; listed as Homo sapiens) [compound 93]	″++″ (≥20% = ++)
376 (AMFESSQNVLL; listed as Homo sapiens) [compound 376]	″++″ (≥20% = ++)
261 (YVLEFLEEI; listed as Homo sapiens) [compound 261]	″++″ (≥20% = ++)
115 (AIAGAGILYGV; listed as Homo sapiens) [compound 115]	″++″ (≥20% = ++)

Substance	Peptide exchange (MHC class I binding score, peptide exchange yield)
486 (AVMESIQGV; listed as Homo sapiens) [compound 486]	″+++″ (≥50% = +++)
106 (LLYDAVHIVSV; listed as Homo sapiens) [compound 106]	″+++″ (≥50% = +++)
14 (AAYGGLNEKSFV; listed as Homo sapiens) [compound 14]	″+++″ (≥50% = +++)
570 (ALANQIPTV; listed as Homo sapiens) [compound 570]	″++″ (≥20% = ++)
468 (YLRSVGDGETV; listed as Homo sapiens) [compound 468]	″+++″ (≥50% = +++)
498 (KLWTGGLDNTV; listed as Homo sapiens) [compound 498]	″+++″ (≥50% = +++)
480 (ALLEDSCHYL; listed as Homo sapiens) [compound 480]	″+++″ (≥50% = +++)
300 (ALLGQTFSL; listed as Homo sapiens) [compound 300]	″+++″ (≥50% = +++)
474 (YLDPALELGPRNV; listed as Homo sapiens) [compound 474]	″+++″ (≥50% = +++)
367 (SLQNHNHQL; listed as Homo sapiens) [compound 367]	″+++″ (≥50% = +++)
593 (GLPRFGIEMV; listed as Homo sapiens) [compound 593]	″+++″ (≥50% = +++)
467 (FLAKDFNFL; listed as Homo sapiens) [compound 467]	″+++″ (≥50% = +++)
287 (FLNEFFLNV; listed as Homo sapiens) [compound 287]	″+++″ (≥50% = +++)
140 (YMDAPKAAL; listed as Homo sapiens) [compound 140]	″++″ (≥20% = ++)
472 (KLLEVSDDPQV; listed as Homo sapiens) [compound 472]	″+++″ (≥50% = +++)
456 (LLIGHLERV; listed as Homo sapiens) [compound 456]	″+++″ (≥50% = +++)
57 (TLAELQPPVQL; listed as Homo sapiens) [compound 57]	″+++″ (≥50% = +++)
296 (FMEGAIIYV; listed as Homo sapiens) [compound 296]	″+++″ (≥50% = +++)
618 (VLFDSESIGIYV; listed as Homo sapiens) [compound 618]	″+++″ (≥50% = +++)
604 (SILDRDDIFV; listed as Homo sapiens) [compound 604]	″+++″ (≥50% = +++)
284 (ILLSQTTGV; listed as Homo sapiens) [compound 284]	″+++″ (≥50% = +++)
39 (SVAPNLPAV; listed as Homo sapiens) [compound 39]	″+++″ (≥50% = +++)
